In a protein production outcome set (Wang et al. 2014) one finds protein production data, which are given here for 26 sequences.

This data set can be described thus: label from the status in PepcDB records.

As for “FYTPSFITSYMCKESITPIVLDKFNAIYQWDCENLKALRGEIDRNFSNEKAKEYLNTLLTLRICDPAVGSGHFLVSALNEMVRVAYELGLIASLYRYDLKLENDEIIIHHTPTGEIFNYIKPDSENDPHHHIQKELFNLKKSIIENCLFGVDINPNSCEITKLRLWIELLKYSYYIFEKGKNTNALETLPNIDINIKCANSLISRFALKDKALLKSEKNKNLEYSIAEYKELVKIYKDPKILETLTHPIKDSNAVRKYAKERLYQELKQNPNKDFKKALNDRIEKIKKAFKLTLNPPPKELKFKKFLKEHLELYGKSILEEANYNGLELEALALEKQMANLFFDYRPYPKLDKSDKVVGLEHFNRYVLTSYKDLQDENERYANALEWRFEFPEVLDDEGDFSGFDCIIGNPPYIRQEHIKDLKPLLEKQYQDFYNSTADIYTYFFALAFHLLKEKGFSAFITSNKYTRAKYGAKLREWLLKKTTIVSYMELNALKVFESAAVDTSIIHFIKQTPSKESEFKYYEPTPNDKDDLKSTPHLLMKQNVLST”, the protein production entry is “failed”.

Turning to “GDETGVMDSLLEALQSGAAFRRKRGPRQANRKAGCAVTSLLASELTKDDAMAAVPAKVSKNSETFPTILEEAKELVGRAS”, the protein production entry is “failed”.

Take “GDGEEYTFWDPEYAGLQNGLKAVLPNAHNYITQFSANERRYIVYSTSSTQPGTYYFGDRDEKVLFPIAERYSQLSTEQLADTQYLSYEARDKLKIDAYLTVPKGFKAKHLPTIIFPHGGPISYDSNDFDYWAQFFANRGYAVFRMNFRGSAGYGYEFMKAGLKSWGLEMQNDVEDGTRYLINQGISDPQRICIVGASYGGYAALMGAAMTPDLYRCAVSVAGVTDVANLVRSSRRFTNYEVVKEQIGDDFNVLYERSPISKADKITIPVLLLHGDKDRVVKVQHSREMFDELKSRKKNVEYIELENGGHYLSNNDHRLTTFKALDKFLADNLK”: the protein production result is given as “failed”.

As for “GGGTRFALVAGTTETAGRAGISAAGADPELMSVTPAADAELVTYGTPVRTDVTPVSPSGCPTPALVTRAAREVLGFDVTVVDGGLAEKTGAPTVSVGARPGKDIAEQDPVSTAHGAFAAARQFGQSLPADELYLGETIPGGTTTALGVLRALGEDGMVSSSLPENPTAQKSEVVAEGLQASSLEPGDAANEPKRAVRRMGDPVLATLAGLTAGAVESDTAVTLAGGSQCVAVAALVRHGGYEGPLGLATTSYVADDESADVRASVDRLDLDLTVTDPGFDRSDHVAMERFVAGEAKEGVGMGGALALADRAGI”, the protein production entry is listed as “failed”.

As to “GKKDKEKIIDDFKVAVVTQPLSENKVQYNMVEEMAKEYEEENKIDKDKDGQTKVKQTIKHVVLPENFTSNIDSAINKIVKLADDKEVQAIVVSTDQAGLLPALQKVKEKRPEIITISAPMGDDKNQLSQFVDVNLGVSAEERGKVLAERSKEMGAKAFIHYASTDDLKDVNIAKRLEMIKETCKNIGLPFVQVNTPNINTEEDKNKVKQFLNEDIEKQVKKYGKDINVFGVNEYMDEVILTKALELKYIVAEQSNPSPIQTYPSVMGLKISEKDAQNYDKINDMISEKAKAFGMSNRLGGYPMPMDAFLPSLAIYLATEMVKQDLTQEDVCDPDYLEAFTELRFGIGSEFTPLTEVLYNYQSVILSQLIY”, the protein production entry is “not failed”.

As for “GLQAEWMQMSSLGTVDAPNFIVGNPWDDKLIFKLLSGLSKPVSSYPNTFEWQCKLPAIKPKTEFQLGSKLVYVHHLLGEGAFAQVYEATQGDLNDAKNKQKFVLKVQKPANPWEFYIGTQLMERLKPSMQHMFMKFYSAHLFQNGSVLVGELYSYGTLLNAINLYKNTPEKVMPQGLVISFAMRMLYMIEQVHDCEIIHGDIKPDNFILGNGFLEQDDEDDLSAGLALIDLGQSIDMKLFPKGTIFTAKCETSGFQCVEMLSNKPWNYQIDYFGVAATVYCMLFGTYMKVKNEGGECKPEGLFRRLPHLDMWNEFFHVMLNIPDCHHLPSLDLLRQKLKKVFQQHYTNKIRALRNRLIVLLLECKRSRK”, the protein production result is “failed”.

For the sequence “GMFGLVFNTRRATFADEKVREGLSYALDFEWLNRNILGGSFKRTQSYWQNSPLGAYGNAADERELALLGDAAKTMPAELLAGTYAMPTTDGTGADRKVLKLAVDKLKEAGYSIKNGKMSDANGRQLAFEIMTQNPAQERIALAYQRSLNLIGVAMGIRSVDDGQYQARSNSFDYDMIIRSLPSSLSPGMEQLNRWNSLSRDAQGSFNYAGVANPDIDRMIEALLQARSTEDFQAAVRAYDRLLVAGHYIIPLYYIG”, the protein production result was “failed”.

On to “GMQGYFFNTRRDLFKDIRVREALSYAFDFEWSNKNLFFGQYTRTKSFFDNSELASFGTPSPQEREWLTPFKEQLPEGIFDQPFTLPTTKGDGNIRPQLKRAQQLLKEAGYEIKNKKLIHTTTGQPFVFELLLLSPAMERVALPFKRNLATLGIEMKIRTIDLTQYINRLREFDYDMIVGVIGQSLSPGNEQRYYWHSSSKDERGSKNYAGIDHPAVDRLVEMVVNAKDRRELVDYTRALDRVLLWNHYVIPHFHNR”, for which the protein production entry was “not failed”.

“GNIEAALFGLIALYAQTKVIDSIIYGGDAGSMATIVTGNPDGIAAKVIYELDRTATVLPAKGAYSRKDTSVLLCTVRKSQFVKLKRIVYEEDPDAFVMVTETSEVLGLGFRAFKDSL”: the protein production result is “failed”.

For the sequence “GNPEIKGRRRQIAQEIAYEDTSSQIKHASAVVSNPKDIAVAIGYMPEKYKAPWIIAMGVNLRAKRIIAEAEKYGVPIMRNVPLAHQLLDEGKELKFIPETTYEAVGEILLYITSLNAQNLENKNINQFDNL”, the protein production entry is “not failed”.

For “GPPSRRSENRVVVSGLPPSGSWQDLKDHMREAGDVCYADVYRDGTGVVEFVRKEDMTYAVRKLDNTKFRSHEGETAYIRVKVDGPRSPSYGRSRSSGPSSG”, the protein production result is recorded as “not failed”.

On to “GQDTGEDNLAIKGITTLNDLTMVNVSGPGMKGMVGMASRVFGAMSSAGVSIVLITQSSSEYSISFCIEADDKLKAQQVLADAFELELKDGLLEPVDFIDDVSIVTLVGDGMRTSRGVASRFFSSLAEVNVNIVAIAQGSSERAISAVIPEDKISEAIKACHENLFNSKYF”, for which the protein production entry is “not failed”.

As for “GQDYLDIIGRLLPVLPYNLAIIGADGQVLLMNPPMSRITGMSLRQFVMYPSDWVVQEDKAAVADAVRRYSSGRALSGEISVRLIAKPEETVILTLTGIRHLGESALMISLQESASENEIKQQMAQTTRMQAIGQLAGGVAHDFNNILTAI”, the protein production result was “failed”.

For the sequence “GQLSIKLWFDKVGHQLIVTILGAKDLPSREDGRPRNPYVKIYFLPDRSDKNKRRTKTVKKTLEPKWNQTFIYSPVHRREFRERMLEITLWDQARVREEESEFLGEILIELETALLDDEPHWYKLQTHD”, the protein production result is “not failed”.

For “GRDLLLAVDVSGSMDYRDMRWQDDEISRLELIKKLFGDFIEDRRGDRVGLILFGSQAYLQAPLTFDRHTVRVWLDEAQIGIAGKNTAIGDAIGLAVKRLRQRPAESRVLVLITDGANTGGQIAPQIAAQLAAEQQVKIYTIGIGADPQQGGVPGLFGFNPGLDLDEPTLRGIAESTGGEYFRARSSAELESISATLDRLEPVA”, the protein production entry is reported as “failed”.

Regarding “GREQMASFESAYVALSRMKQHVQVYTDNREGWIKAIKNSPEKATAHDILEPRNDRAVKTADLLFGRARPLDETAAGRAALQQSGLAQGSSPGKFISPGKKYPQPHVALPAFDKNGKAAGIWLSPLTDRDGRLEAIGGEGRIMGNEDARFVALQNSRNGESLLAGNMGEGVRMARDNPDTGVVVRLAGDDRPWNPGAMTGGRVWAEPAPVAPVPQAGADIILPPEVLAQRAAEEQQRREMEKKAEQTAREMAGEARKAG”, the protein production entry is “failed”.

In the case of “GRKVGFRKGPRPGAGPREGGFRNDGPRGEGGYRNDGPRGEGGYRNDGPRGEGPRNEGPRGEGYRNDGPRGEGFRGPRFNNGPSNGYENRQDNNRFGEKRRSAQKPLKVDDEAQFPTLC”, the protein production result is “failed”.

Take “GSAEILVPEVYHGPGKRGTGFYNADQKINRDITIEFIKKMGIRNVLDGFGGTGIRGIRISKETDSAVTISEVSPDSYRLIRDNVERNGSQASVINDSFECVLQHGAYEYVDVDPYGSPVPYLDAALMGVKRNGFLGVTATDQSALTGSVPHKTRIRYDALIKNDTFRHEMGIRLLIGYMAKRAASLGRFIDPLISIWHGHYYRVFVRVRKGFEGAGRMMQNLGYVNKHNLLSGIYQDMDEGPVWKGNLQDNAVAEAVLASAGHKAFNPEENRLLFCDLTDIARARHTSLPDIESVIDALSSSGHAASRTMFSPTGIKTDASCDLVESLMMDTLHRRS”: the protein production result is given as “failed”.

In the case of “GSAQEEQSANEVAVSYSKSLKAAEMDSLQLPVDADGYITIFDGKTFNGWRGYGKDRVPSKWTIEDGCIKFNGSGGGEAQDGDGGDLIFAHKFKNFELEMEWKVSKGGNSGIFYLAQEVTSKDKDGNDVLEPIYISAPEYQVLDNDNHPDAKLGKDNNRQSASLYDMIPAVPQNAKPFGEWNKAKIMVYKGTVVHGQNDENVLEYHLWTKQWTDLLQASKFSQDKWPLAFELLNNCGGENHEGFIGMQDHGDDVWFRNIRVKVLD”, the protein production result was “not failed”.

In the case of “GSDSSLFETYNVELVRKDGQSLGIRIVGYVGTSHTGEASGIYVKSVIPGSAAYHNGHIQVNDKIVAVDGVNIQGFANHDVVEVLRNAGQVVHLTLVRRKTSSSTSPLEPPSDRGTV”, the protein production result is listed as “not failed”.

In the case of “GSESFDILTDPAQAKEVGTALGIFHQLLSDLSPSQLVDTLPGFHHTPIYLQQYQRALAQNPKLTGSLGPEINHCQRVIKTWLDQCGVLETAKAQGQLPLRLMHGDPKVNNILFDRQSGKAVSVIDLDTTKPGLIHYDLGDCLRSGCNLLGEETENWSAVEFDLDLCRAILEGYLPQCQHFLTAADYDYLCPAIVLISFELGLRFFTDYLNGDRYFKVKYPEHNLIRALVQFQLASHIQSQEDAIRRMIEDIRG”, the protein production result was “failed”.

Regarding “GSHMLGGKGRPSGVGGYRILVTTSRRPSPRIRSFVKDLSATIPGAFRFTRGHYSMEELAREAIIRGADRIVVVGERRGNPGIIRVYAVEGPERPDNIVSFIVKGVSLSRERRWGLPSLRGGEVLVARPLDSGVAVEFADAFVIAFHARLKPPEAAGYVEAVIESLDARTVAVTFRYGGAPVGPMLRLGKPAEMVKRGRRV”, the protein production entry was “not failed”.

As for “GSSGSSGMASTFTSDTLPADHKAAIRQMKHALRAQLGDVQQIFNQLSDDIATRVAEINALKAQGDAVWPVLSYADIKAGHVTAEQREQIKRRGCAVIKGHFPREQALGWDQSMLDYLDRNRFDEVYKGPGDNFFGTLSASRPEIYPIYWSQAQMQARQSEEMANAQSFLNRLWTFESDGKQWFNPDVSVIYPDRIRRRPPGTTSKGLGAHTDSGALERWLLPAYQRVFANVFNGNLAQYDPWHAAHRTEVEEYTVDNTTKCSVFRTFQGWTALSDMLPGQGLLHVVPIPEAMAYVLLRPLLDDVPEDELCGVAPGRVLPVSEQWHPLLIEALTSIPKLEAGDSVWWHCDVIHSVAPVENQQGWGNVMYIPAAPMCEKNLAYAHKVKAALEKGASPGDFPREDYETNWEGRFTLADLNIHGKRALGMDV”, the protein production result is on record as “not failed”.

With “GSSGSSGMQLEIQVALNFIISYLYNKLPRRRVNIFGEELERLLKKKYEGHWYPEKPYKGSGFRCIHIGEKVDPVIEQASKESGLDIDDVRGNLPQDLSVWIDPFEVSYQIGEKGPVKVLYVDDNSGPSSG”, the protein production result is “not failed”.

As to “GTIGPVADAEPHAAALGEAFQLTNFLRDVGEDLDRGRVYLPADELAAFGVDTELLAHSRRSGTTDQRIVRALAHLISVTRSVYRDAEPGIAMLDRRVQPGIRTAFVLYSRILDEIERGGYRVLDRRATVSRRNRWATALPQFARLAV”, the protein production entry is on record as “failed”.

In the case of “GTVSWNLREMLAHAEETRKLMPICMDVRAIMATIQRKYKGIKIQEGIVDYGVRFFFYTSKEPVASIITKLNSLNEPLVTMPIGYVTHGFNLEEAARCMRSLKAPAVVSVSSPDAVTTYNGYLTSSSKTSEEHFVETVSLAGSYRDWSYSGQRTELGVEFLKRGDKIVYHTLESPVEFHLDGEVLSLDKLKSLLS”, the protein production result is “not failed”.
